Where “and” joins values, the source holds several entries; their conditions need not be identical. Identical values can stand only once.
Biological target: human CLDN4 (YFP- or CFP-tagged) (human)
Experiment: FRET or BRET

stoichiometry N (hCLDN8:hCLDN4): 0.5 and 0.25
Substance: human CLDN8 (YFP- or CFP-tagged) (natural protein)

Source: article PMC11740656
